From a protein production outcome set (Wang et al. 2014) come the findings set out here.

The series is described as follows: label from the status in PepcDB records.
In the case of “MPSSDLRAFVVRVVIVLALVAYAWLLWALSGLLLMVFGAVVVAVLLRALASWVTRYTPLSDGMALGLVVVVVAVGFTALLWLFGSQLATELGALQRTLPQAWARFHDWVAAGPLGPALEELTRQAPARVSNLAPRAGAFALSITGGVANLFLVLAGAVYLAAQPQLYRRGVLLLFPVQVRATMDDAVRASGTALRLWLRGQLLAMVVVGALTGLGLWALGIPGALALGIIAGLLDFVPIVGPILAAIPAILLGFTVSPQMALATAALFVVVQQIEGNILLPLIQQRTVDLPPVLLLFSLFGIGTLLGPAGVLLAAPLTVVAFVLVKRLYVQEALHTPTSIPGQKHH”, the protein production entry is recorded as “failed”.

On to “MPSSSASLIPSLRQASRQMVRELGFMQATLAATDYPPSAVHALLEIGQGNALTAGDLVTLLGLEKSSVSRLVRKLVDAGEISEQAHDQDARSKKLQLSARGRQTLAGIDRFAQAQVAAALAHLSPAQQRSACAGIADYARALRAVRLGDVPEPPERCSIARGYRPGVIGRIAEMHARYYADLAGFGQPFESLVARDMAELMGRLHNPRNEVWVALQGERIVGSIAIDGEGEGGEALLRCFILDEAARGQGLGRRLLAEALGFCDQWGFAATRLWTFKGLDAARALYEEQGFVLVQEQEGEQWGAPVTEQCFVRARVAQRDTIR”, for which the protein production result is reported as “failed”.

“MPTATDARGHTVTLDHRPRRILSLVPSQTELLAHLDLADEVVGITRFCERPEHWRSEKAIVGGTKQVDFDTVRDLDPDLVLANHEENTAEDVETLDEIAPVFVTEVKTVEDALGMIRTVGTLTETSDQTSTLVGKIISRFESLPDFTSLRAAYLIWRDPYMTIGNDTFIHDVMHWGGLENAYGDQTRYPDVTIADLAEQDLDVVLCSSEPFPFHEKDAFTADLREALPDTSVEIVDGQPFSWYGPRLLDTPSYLKTLRERLPTPAPRR”: the protein production result is “failed”.

Turning to “MPTFDHGNLSLGELELTVLYDEERYDIVEQTETVQVDLEGPRGVLTVFRFARPSYEVFVDLTEAGEGSHTVDVEHRGFPGDLAVTVEPRMARVQLEERQTVSVPVTVEMINLEHHHHHH”, the protein production entry is “not failed”.

Take “MPTLQLFIYIIGFLFLMYMAWSLWTEKPSNIEEIEPMSAKKQILFALSVSLLNPHAIMDTVGVIGTSASVYDGYDKVVFSLATISVSWIWFVFLAILGRITGKIDKSGKYIVILNKVSSVIVIIVGLIILKNIVGILS”: the protein production entry was “failed”.

With “MPTPTYPKASLIIRERGLPKREVLLSPDRQWTIGRQLDCSIRLTDAYVSRLHAVINAFLFRGQPLYFIRDAHSRNGTFLNGFPLQHSTLLHHEDVIGVGTTLLVFYYPDMFREISLDECPELTKGSTDSLPWRS”, the protein production result is recorded as “failed”.

In the case of “MPTTKQLKDTELPLNFFEHSSLETIELFIQHLTEAMILVNANGFIRSCNQRSAELLDCPQVSLKGQDWRNFLTEHHQARYDNLLSHDVQLGTNCGQPVQHPAQETTLICASGKAKDVELSISYIPGHEPMFVMVMHDLTHHKAELEHHHHHH”, the protein production result is given as “not failed”.

“MPTVFIFLTAVYAGLGAFAWHCQQQGRGRDYPWKTELPVLGAALTVHGAALLMPVIQDKIIIMGFGYSGSLIVWMMLFIYFAGSFFYPLRGVQLLLYPCAALMLLSGLVFPGKFSGYEITDFPFMLHIGTSLLAYGLFGIATLLSVLSLLLHRSLHRRNFSKLAGFLPSLLSLEKLMFQAMWAGFILLTYSVVSGTFFAEAVFGKPMTFTHKTVFGILSWLIYGGLLLKHSMTAWRGKKAAVWTIIGFVSLMIAYMGSKFVLEIILKR”: the protein production result is listed as “failed”.

For “MPTYLFLSSGNVLADRRYDFARELLARGEAEAAADLLAQAVELAPDFTSAWFALGEIRQDRLGNREGAVDAFRRARAADPRDRHGAGLRLMRLGAADLDAMSPAYIGALFDQYAPRFDKSLVEDLGYRGPALLFEAVREVCETTGRAMAFRRAIDLGCGTGLVGRAFAPIISEIIGFDLAPQMIERARATGVYGRLAVTDLVQGLANEPPASAELILAADVLIYIQDVAPLLHEAARVLPPGGLLAVTAETHAGDGVVLTAGLRFAQAESYLRAELERAGLVVALLQYASARNEKHTPLPGLVVVAFRPNG”, the protein production result is reported as “failed”.

As to “MPTYSAMANTDGGIVILGVRERKGQFEVAGIENPDKLRTELFNHLNNRQKVSVNLLRDEDVRAWPVEGKTLLVVEIPRARRQQRPVYLRGNPLGGHTYRRLHEGDRPLEHHHHHH”, the protein production entry is reported as “failed”.

As to “MPVCWSHRSDSRPASNATPLSGPVGWAHQAAPLQRLLHGTAPVILSPALEPPQHKDPAMPKLASIHLYPIKSTAGMPLTRALVTEEGLQGDRRYMVVKPDGSFITARTHPQLQQVVATPIEGGLQLRYPGLDPLILQEREFSRTPRATGVWSDSFSALQTQPQADQWLSQVAGEPVQLLWLGEESARFREKTGTRVSFADGYPLLLISQASLEDLNLRSDALHQMSQFRTNLVASGTLPFEEDGWKRIRIGEVEFRVAKPCSRCIMTTVEPGTDRFNALKEPLATLTRYRRGEDGEVYFGQNLVALNEGWIEAGSEIEVLERARAPVYPNAAPKKRELVCVAREPLARDLETFWFEAADGEPLPDYLPGQHLPISLDIGLGLRRERLQRRYTLSSTPERPERYSISVKKVGGGRISHWLHQQLQPGDRLLAAAPAGEFHLGTGRSLLLLSAGSGVTPMLSIARTLALRGELGDVHFMHLCRSEADIPAAGELHALAQQGMTLTLILSQPDTHWQGLKGRLGDDHLKQVKQLAEREVFICGPHGFMADAAARLVALGVPAERIRQESFGGAILSVARPHQAVQLRIGKQSFAGNNQGTVLDQAHKQGVDLPWSCRAGICGSCKQTLLEGEVDHPDAPAITAAERAEGKILTCCAVPLTDLVIK”, the protein production result is “failed”.

For “MPVDAKTKYKAKKIKIVFFDIDDTLRVKKTGYIPESIKAVFKGLKEKGILTGIATGRGYYGVVEEILDLEPDYFVTINGTYVINRKGEEIYNQPLAREVTEAFVAWCKEIGIAWGFAGKDKPVVSERSELIDDAIVPIYGICDVEPDFHLTNDVYQMWTFAENNGDLKLPEELAAHVRLVPWHEHSSDVVATGISKASGVGHVLEHENLTPVNAMMFGDGPNDKEIFDYVGLKIAMGNATPELKAKADYVTGTVEEDGIFNALEELGLVEKELHFPQLDLDTVEGPVATIKTNHGDLVIKLFPDHAPLAVTNFVNLAKSGYYDGVIFHRIIKDFMIQGGDPTGTGMGGESSFGGSFQDEFSEELYNLRGALSMANAGPDTNGSQFFIVQAPEIPYAKKELERGGWPAPIAEAYAENGGTPHLDRRHTVFGHLVDEASYKVLDEIANVEVGTQDKPLEEVVIETIEVTDLEHHHHHH”, the protein production result is “not failed”.

As for “MPVDKNLRDLEPGIHTDLEGRLTYGGYLRLDQLLSAQQPLSEPAHHDEMLFIIQHQTSELWLKLLAHELRAAIVHLQRDEVWQCRKVLARSKQVLRQLTEQWSVLETLTPSEYMGFRDVLGPSSGFQSLQYRYIEFLLGNKNPQMLQVFAYDPAGQARLREVLEAPSLYEEFLRYLARFGHAIPQQYQARDWTAAHVADDTLRPVFERIYENTDRYWREYSLCEDLVDVETQFQLWRFRHMRTVMRVIGFKRGTGGSSGVGFLQQALALTFFPELFDVRTSVGVDNRPPQGSADAGKRLEHHHHHH”, the protein production entry was “not failed”.

Turning to “MPVNSILGVFAKSPIKPLQEHMDKVYDCASLLVPFFEATITGNWDDAVQIRKQISLAEKQGDSLKREIRLTLPSGLFMPVERTDLLELLTQQDKIANKAKDISGRVIGRQLLIPQALQVPFIAYLQRCIDAVGLAQQVINELDDLLEAGFRGREVDFVAKMINELDIIEEDTDDLQIQLRRQLFALESELNPVDVMFLYKTIEWVGGLADLAERVGSRLELMLARV”, the protein production result is “not failed”.

For “MPVQENSFKSYSEVITGSIIYGTIGVFLDRVQDMSVGSVLFCRLLFGVFMIFFYLLLSGSLEQLRLRRNRKYLLLLGFLNAVTGICYLSAIRHSGISTAVLLLYTAPVYVNLLAPAILGEKGSSKSFLPLILSVLGVLLITRPGEILFNINAGSEFIKGLLYGILSGISFGTTIILIRYLRHDYTGISQTFWLTGVSLLFMLPSALLTPASVFLKNFDTLFLFGITITFAAILYLRGISGIKAQTGSILALLEPVSGIFFDTVVLRSPFYISTLLGCVLILTAAYLVSRNGTGDQSLKTDNQPVL”, the protein production entry is reported as “failed”.

As for “MPVRVSLELLRVGHCRHCERMVRADGHWHAVEFPALSVLIRHPQRGALLYDTGYAAHFFRATDAWPERLYRLTTPVRLPAHETLGAQLSKRGVALDDIAWCLISHFHADHVGGLRDLPNARFMCSRADHQQLRSCSRVGGLRRALLPQLLPDDFDQRLQFADQAPQRALTGAWQGLGPAYDLFEDGSVLAVSLPGHVPGQMGLRVRDQHDREVLLCADAVWSSATWATLQWPAWPTRLLMHDWHAFQRTVHRLHALSHAHPELAILPSHCQPSLDRYQPEWR”, the protein production entry is listed as “failed”.

As for “MPWIQVYTPVAGSLGLSALVAAIPLVVIFVCLALFKMKAHKAGLLALASAMLIAITVWGMPAKLAGLATAQGAAFGLFPVFYIVITTIFLYNITVKGGQFEIIRASLAGVTADRRLQALLIAFCFGAFIEGAAGFGTPVAIAGATLAGLGFQPLYAAGVCLVANTAPVAFGAIGIPIVALAGVMGYGDDGMMKLSTMVGRQLPFISVIIPFYVIMIMVGWKKTIEILPAIIVCGVTFALSQWATATYLGPYLPDVTASLASIIALVLLLRVWQPKTIYTFAHEAPVTGATEHHYTTGEVFRAWSPYLALTVMVLLWGIPSIKTVLDKSTVEIEVKGLHNMIVKKVAKPEDTLTKIAAASAEIDRQLTLLSPADPKQAAIAAKLMELKAFETQLAAVEQGLVGQGAVLTDERLKACDIVSKKMAETQKLCKELVKTAAVPANQFKPLDKALADHLPLKVAAKYKFNFMSAAGTAILIAAFLSALICGVGFADTFRILGKTLYDMRFPALTVASVLGLAYVMNASGMTNCLGLIFTKTGHWFPFIAPFLGWLGVFLTGSDTSSNVLFGGLQKATAEQLGISPILTGAANTSGGVMGKMISPQSLAVATAATGMVGEEGTLFRFTLKHSIFLTILVGIIVYLQAYVLQWMIP”, the protein production result is listed as “failed”.

Consider “MPYERKIINDPVFGFINIPKGLLYDIVRHPLLQRLTRIKQVGLSSVVYPGAQHTRFQHSLGAFYLMSEAITQLTSKGNFIFDSEAEAVQAAILLHDIGHGPFSHVLEDTIVQGVSHEEISLMLMERMNKEMNGQLSLAIQIFKDEYPKRFLHQLVSGQLDMDRLDYLRRDSFYTGVTEGNIGSARIIKMLDVADDRLVIESKGIYSIENFLTARRLMYWQVYLHKTSVAYERMLISTLLRAKELASQGVELFASPALHFFLYNDINHTEFHNNPDCLENFIQLDDNDIWTALKVWSNHPDKVLSTLSLGMINRNIFKVENSAEPIGEDRIKELTLQISQQLGITLSEANYFVSTPSIEKNMYDPADDSIDIIYKDGTIKNIAEASDMLNISLLSKKVKKYYLCYQRLHR”, for which the protein production entry was “not failed”.

Turning to “MPYFLIHNKNDNVGVAIADIKTGQEVEGIYIEDMTQGPKIKAISDIPLGHKIALKDIRQSDIVIKYGRPIGSAIKDIKVGEHVHVHNIRSNRWGKWKNQ”, the protein production result is “not failed”.

On to “MPYTLQHLESEAALAASFDLMRVLRPHLTSPAAYVAQWARQTEQGYRLLAAWDAERIVGLAGYRELENLLYGRFIYVDDLVVSPDLQRSGLGARLLSAVRDEAVQRQCEHFVLDTGLHMPLAQRFYFRQGLLARGMHFTQRLE”, for which the protein production entry is given as “failed”.

“MQAGQVATNDLTISGIVNTVPASAVFAREANPVKVLNVKNTGDETLSNISIAVYASDVSSGTVPVDTTTIASLAGDATTTVTLIDPTIRDLEGGTVTYTAVVDPDNLIAETDETNNNKSSLEHHHHHH”: the protein production result is “failed”.
